The data set can be described thus: soluble on expression in E. coli; label from the status in PepcDB or PDB records.
“MSSVSEVNVDIKDFLMSINLEQYLLHFHESGFTTVKDCAAINDSLLQKIGISPTGHRRRILKQLQIILSKMQDIPIYANVHKTKKNDDPSKDYHVPSSDQNICIELSNSGSVQTSSPPQLETVRKNLEDSDASVERSQYPQSDDKLSPPKRDFPTAEEPHLNLGSLNDSLFGSDNIKIESLITKKTVDHTVEEQQTEKVKLITENLSKLPNADSECLSFVGCSTSGTNSGNGTNGLLEGSPPSPFFKFQGEMIVNDLYVPSSPILAPVRSRSKLVSRPSRSFLLRHRPVPEIPGSTKGVSGSYFRERRNVATSTEKSVAWQNSNEENSSSIFPYGETFLFQRLENSKKRSIKNEFLTQGEALKGEAATATNSFIIKSSIYDNRKEKISEDKVEDIWIPREDKNNFLIDTASESEYSTVEECFQSLRRKNSKASKSRTQKALILDSVNRHSYPLSSTSGNADSSAVSSQAISPYACFYGASAKKVKSGWLDKLSPQGKRMFQKRWVKFDGLSISYYNNEKEMYSKGIIPLSAISTVRVQGDNKFEVVTTQRTFVFRVEKEEERNDWISILLNALKSQSLTSQSQAVVTPEKCGYLELRGYKAKIFTVLSGNSVWLCKNEQDFKSGLGITIIPMNVANVKQVDRTVKQSFEIITPYRSFSFTAETEKEKQDWIEAVQQSIAETLSDYEVAEKIWFNESNRSCADCKAPDPDWASINLCVVICKKCAGQHRSLGPKDSKVRSLKMDASIWSNELIELFIVIGNKRANDFWAGNLQKDEELHMDSPVEKRKNFITQKYKEGKFRKTLLASLTKEELNKALCAAVVKPDVLETMALLFSGADVMCATGDPVHSTPYLLAKKAGQSLQMEFLYHNKFSDFPQHDIHSEGVLSQESSQSTFLCDFLYQAPSAASKLSSEKKLLEETNKKWCVLEGGFLSYYENDKSTTPNGTININEVICLAIHKEDFYLNTGPIFIFEIYLPSERVFLFGAETSQAQRKWTEAIAKHFVPLFAENLTEADYDLIGQLFYKDCHALDQWRKGWFAMDKSSLHFCLQMQEVQGDRMHLRRLQELTISTMVQNGEKLDVLLLVEKGRTLYIHGHTKLDFTVWHTAIEKAAGTDGNALQDQQLSKNDVPIIVNSCIAFVTQYGLGCKYIYQKNGDPLHISELLESFKKDARSFKLRAGKHQLEDVTAVLKSFLSDIDDALLTKELYPYWISALDTQDDKERIKKYGAFIRSLPGVNRATLAAIIEHLYRVQKCSEINHMNAHNLALVFSSCLFQTKGQTSEEVNVIEDLINNYVEIFEVIILYPALVKMVIMSLFANKYLCC”: the “soluble on expression in E. coli” value was “soluble”.

On to “MASTSKPAASTTAIKKYYFYVLLCADQTLYGGFTDNLQRRLATHNAGKGAKYTRVRSRRPLQLIYHETFTDKSSALKAEYAFKHQSRAAKLKYLSAHDVKILEHHHHHH”, for which the “soluble on expression in E. coli” value is “not soluble”. The same measure for “MTTNIAANSGGIVFHFLGTGGAQQVPAFGCECEVCQQAQRNESKRRRACCAAITTKDRIILIDAGLPELSPYLLPYPQRHILLTHYHMDHVQGLFPLRWGYGEPIPVFGPPDEAGCDDLFKHPGILHFQKPLMAFQPFELDGIRITPVPLIHSKLTYGYLIQTPTHTLAYLTDTIGLPPETTQFLASHTLDYAIVDCSHPPQTMLPRNHNDITRALEIFTQLNPKQLYLTHISHELDRWLQTQTLLPENVHAAYDGLVLGLLEHHHHHH”: “not soluble”. The same measure for “MSGTKVPSLPKGKEKPCVVTFATQSDRSNEPPPQPRVRKVTTIINTLGVVVRNTTTEIGVWVFTSCVEVSFPRSNSPIFSNFTLGTWMIVGLYPDATVASCSPWPLILKAYEMSVSYGTVFMKRKASELCHEKTVLYSEVVVPLVNPYSNMSYFERDPHLTAELYMIPGFGRVLGSSAYRQYLEDNRDNVSFIVQYCGGSLRGCSWIMSVVDGKAQTDGEFSDKDLREIAEFIRERHNKENESPPLPSNSIARHAGFVTEVFPQKNYLYCWSPQVSLEADHTAKFPQPPKHREVDSPMLSPLVGQWIQFDVQSKDLDKYMSTRSGYRLSIQEYLPINSPCGVGVVQCGKIVRVMISCILVKSTDHPMLFELQMFGPVIDKKSSLISGAFMQIVLEKTSSRIRRMSGVCWRVIYSLIVSGAENMVENSQSVRIEAISQRDAMETSHIIPIEKRTITNNTGVTTLKYQQPHQNPHYQEQRRDYYMGNNIQIQTAYNSTQLRKYQPKPKKFSSYTGESLEGHALVEKIMAHAKTGILWFFDNYNSSVHFIFDDFELNVGDYAYVKLIQKKEETAHLQFRWKWISGTKKLSPFNCRIDLFQLFIEEQVSYKSKDMLNRNTYTSKNFPIIFDADGIIKNPIPGAIYCVVILRKKIQVTQTESPTHKYQWIIDSAQSNPFIITEYYNPHNAFNRSFIASKQFSSSAALSTDSKKGSSGSEKSSTSPPLKSLTPPSDE”: “not soluble”. The same measure for “MAENVGSDSSEFESISSSQKSYLKNCPFAGHEALPTKSTDSDNTEVLGNQISPAVVKTPILSFSSPTSLDSINDDVFRTPPENASLSSAAESEPRVGVSEIKLQGGSNLTTPFSMAETTLVSSSPSLPAENVRVSESNLKSSSSTAKTTPVSASPSVNARVSESNLNSSSSTTPVSVSPSEKVRVFETTPVSASPSEKVRVFETKCHSDSGDSVPLSSSPPSVAADDVRVPAKHLDSDSSPPTAIGRTMVLVKQRISASDNSASSSASEGTKVSKTENSGEVLPFKEIIEALLRNSGEKLNERDDKVSYVEILKQCGLKFPK”: “soluble”; for “MSNVQNASRSSAFAAVEGDHWVESLDDGRHVLIRPLREEDRERERQFINRLSPATRHFRFLGEIKEASPALLDQLMDIDYQQSMAFVALVHEDGELREVGISRYAACCEEGQCECAVTIADDYQGLGLDAVLMRHLIDVARRNGFRQMYSVDSAANRAMRDLCCALGFVGQRDPDDSTQVIHRLAL”: “not soluble”; for “MKNKGLLLKVSTGLAAVSFLFSEYLFKISFKRVDHVPETSQEKQKYAASYWEYVDWFRRINKEHWTFQTKNETERMSAYFIPSKEENSKKVVIIAHGYKGNGETMSSYAKMFYEMGFNVLLPDDRGHGQSMGEYISFGWLDRLDYLQWLKKIIKRVGPKSEILLFGVSMGASTVEMLSGEDLPSQVKCVIADCGYSSIDEEMTFLLKHHYHLPKYPFYPLVSTINRYRLGYYLGDVSSVEQLKKNKLPIFFIHGENDDYVPSYMSLENYEATTAAKELWIVNNATHAESYWLDPLEYKKRIKDFLNKYFNDKN”: “not soluble”.

Turning to “MTVVTTADTSQLYALAARHGLKLHGPLTVNELGLDYRIVIATVDDGRRWVLRIPRRAEVSAKVEPEARVLAMLKNRLPFAVPDWRVANAELVAYPMLEDSTAMVIQPGSSTPDWVVPQDSEVFAESFATALAALHAVPISAAVDAGMLIRTPTQARQKVADDVDRVRREFVVNDKRLHRWQRWLDDDSSWPDFSVVVHGDLYVGHVLIDNTERVSGMIDWSEARVDDPAIDMAAHLMVFGEEGLAKLLLTYEAAGGRVWPRLAHHIAERLAFGAVTYALFALDSGNEEYLAAAKAQLAAAE”, the “soluble on expression in E. coli” value is reported as “not soluble”. The same measure for “MSTIAKDQTQINDKIRAKELRLIGQDGEQIGVKSKREALEMAERVDLDLVVVAPNAKPPVARIMDYGKFKFEQQKKEKEMKKKQKIINVKEIRLSPTIEEHDFQTKLKNGRKFLTKGDKCKVSIRFRGRAITHKEIGQRVLEKYADECKDIATVEQKPKMDGRQMFIMLAPTAEK”: “not soluble”; for “MQDRQKAQDYRALLLADTPLIDVRAPIEFEQGAMPGAINLPLMMDDERAAVGTCYKRQGADAALALGHRLVCGDIRQQRLEAWKAAYQRFPNGYLCCARGGQRSHIVQRWLQETGIDCPLIEGGYKALRQTAIQATWQLAQKPILLIGGCTGSGKTQLVRQQPNGVDLEGLARHRGSSFGRTLNPQLSQASFENKLAVELLKINARQTLKRWVLEDEGRTIGANHLPECLRERMAQAPIAVVEDPFALRLERLREEYFIRMHHDFTHAYGDEAGWQAYSEYLHHGLFAIRRRLGLQRFAELTDTLDRALAEQLSSGSTDGHMAWLVPLLNEYYDPMYRYQLEKKAANIVFRGTWQDVANWLKAQ”: “not soluble”. The same measure for “MGSDKIHHHHHHMTKETATISQLQQDIINNSQKGFPLTSQPYKTIAEQLADVNIVTNELEVFQAIDDLNSQEVLSRVGPVFDHKKAGASTLAALAVPAKDLDKIAGIVNQFDQVNHNYGREHVYNLWFVVTASDMVALNSTIVNIELLTGLPVLVLPMEASYHIDLAFSINVTGIESPTSNQENRPVTFDNNDTTSLTDIEKTALRRAIEKGLPTHLFPYQAIAQQLALSEQQVLMQISLWQEEGLIRRFGLVIKHRKLGYDANAMVVWNIPNENMDAIALKLAKCAPVSLCYQRPRRLPDWPYNLFCMIHGTDRSLVLQQISQITEQLGLESIEKDVLFSFKAYKQHGARYFKTNSKKAKTNNISAGKTENNNDMKKQGQAHG”: “not soluble”; for “MGSDKIHHHHHHMVAQLETPSANSSLSLPYPIEGLVQVFTSSHRNFFTSVMGQALRIAGQGTPVLIVQFLKGGIKQGQDRPIQLGQNLDWIRCDLPRCIDTPHLDESENQALQKLWLHTQQVVDEDKYSLVVLDELSLAIHFGLIPESDVLAFLAKRSPHVDIIFTGTEMPQSILDVADQITEIRRSHCP”: “not soluble”. The same measure for “MEDIENIEEDEYGFSRNYFLAKELGGASKRSAHKLSDIHIVDEQELRETASTIEMKHSKEISELMSDYKTMYSKWVFELRCGFGLLMYGFGSKKALVEDFASASLTDYSVVVINGYLPSVNLKQVLLALAELLSELLKCKRKSSGSLSKGQETFPSRSMDDILSFLHGPQSGDKDCFICVVVHNIDGPALRDPESQQTLARLSSCSHIRLVASIDHVNAPLLWDKKMVHKQFNWLWHHVPTFAPYNVEGVFFPLVLAQGSTAQTAKTAAIVLQSLTPNGQNVFKILAEYQLSHPDEDGMPTDDLYSASRERFFVSSQVTLNSHLTEFKDHELVKTKRNSDGQECLNIPLTSDAIRQLLLDLNQ”: “not soluble”.

As for “MSLIVTLPEPTGPYEIGVTNFHWVDPDREEVEGVNGNRELMVRIWYPAELTEGGLKAPYAFDPSYTELVSKELPYYYKALLYSVIQTETHSFANVPVADHGAPYPVLILSPGYGNSNFMYTSQAETLASHGYIVCSIEHTYYTGLPTLFPDGRIVYEQIDLEDGRDLDEEITVWVDDVQFVLDQLQKWNESDPQNLLNGRLDMDRVGMLGHSFGGATTAQVMHQDPRIRAGVNMDGFLFGSLIEEGLDYPFMYMSGVEEVSMEGPDGKKVEEAELPEEFREFIADDKRRKEGALKNNGLYVVIENAEHESFSDWMLYSPLLLDRDLPMLDQINKTLLDFFDEHLKEGHHHHHH”, the “soluble on expression in E. coli” value is “soluble”.

Regarding “DNRLKEENPDSTLRDTEYIDVGESPDGGKYRGVILFELGQLNKTNKIEKATLSLFWYYPEESRKEDTILEVYRPEKWCEEHISWGAREINTPWKNPGGDWYDKNGVSQGSTPYSTITFKSSSLPDNRYYELDVTELVREYISGKYENTGFLIKSRAEDSDYIAFYSSEWQNKNQMPRLSIEYKNE”, the “soluble on expression in E. coli” value was “not soluble”. As to “MGKLKWFSGGKERSNQAENIITDLLDDLKTDLDNESLKKVLENYLEELKQKSASVPLILSRMNLDISKAIRNDGVTLSDYQSKKLKELTSISNIRYGY”, the “soluble on expression in E. coli” value is listed as “soluble”. The same measure for “WLEPYLAGVTSVKGLQSVSVLQALKHYLGWELSQQLDEWLPTHHLLPTGNHKKIRYQLGMEPTLSVRMQEVFGEQSSPRVAKGTRAVVMELLSPAQRPLQVTRDLASFWAGAYKEVQKEMKGRYPKHVWPDDPANHVATSKTKRQLNA”: “not soluble”.

Source of the values: the DeepSol protein solubility set.
